Test results: US20070248613A1

Molecular target: IZN36 (HIV)

B1: D5 IgG (antibody, V domains shown)
VH: QVQLVQSGAEVRKPGASVKVSCKASGDTFSSYAISWVRQAPGQGLEWMGGIIPIFGTANYAQKFQGRVTITADESTSTAYMELSSLRSEDTAIYYCARDNPTLLGSDYWGKGTLVTVSS
VL: DIQMTQSPSTLSASIGDRVTITCRASEGIYHWLAWYQQKPGKAPKLLIYKASSLASGAPSRFSGSGSGTDFTLTISSLQPDDFATYYCQQYSNYPLTFGGGTKLEIK
IC50 (read off the curve): 0.6 nM
